Where a chain is given by its changes, count along the chain named. “Also recorded” adds a separate entry of the source.
B1: SVAR Luc-1: Engineered luciferase derived from Metridia longa luciferase, amino acid sequence SEQ ID NO: AA1, encoded by SEQ ID NO: 1 (protein)
chain: MEAEAERGKSPGKKLPLAVIMEIEANAFKAGCTRGCLICLSKIKCTAKMKVYIPGRCHDYGGDKKTGQAGIVGAIVDIPEISGFKEMEPMEQFIAQVDRCASCTTGCLKGLANVKCSELLKKWLPDRCASFADKIQKEVHNIKGMAGDR
modifications: NO.1 (1)..(450) SEQ ID NO.1
B2: SVAR Luc-2: Engineered luciferase derived from Metridia longa luciferase, isoleucine 106 to valine, SEQ ID NO: AA2, encoded by SEQ ID NO: 2 (protein)
chain: B1 chain with I94V
modifications: NO.2 (1)..(450) SEQ ID NO.2

Key:
HEK293 cells [1] = assay: Transient transfection of HEK293 cells, luciferase genes under constitutive CMV promoter, luciferase activity in supernatant (FIG. 3A); format: cell-based, human; conditions: 18 hours at 37° C., QuantiLuc Gold, compared with native Metridia longa luciferase and other luciferases
Protocol: FIG. 3A illustrates the response of HEK293 cells following transient transfection of cells with the novel Svar vector encoding the luciferases genes indicated, each under the control of a constitutive CMV promoter, and co-transfection of cells with firefly luciferase under the control of a constitutive thymidine kinase (TK) promoter. Luciferase activity was quantified in the cell supernatant after 18 hours incubation of cells at 37° C. using a commercially available coelenterazine based “glo” substrate (QuantiLuc Gold, Invivogen). The cells were then lysed and firefly luciferase activity was quantified with BrightGlo (Promega).
A series of deletion mutants of the 5′ coding region of the native Metridia longa luciferase gene were designed in silico, synthetized in vitro and tested in transient transfection experiments. The nucleotide sequence of the native Metridia longa gene luciferase gene is illustrated in FIG. 1 and the amino acid sequence in FIG. 2.
A series of random mutation were introduced into the coding sequence of the native Metridia longa luciferase gene using oligonucleotides carrying a single or multiple mutations (FIG. 4). The oligonucleotides were synthetized in vitro and tested in transient transfection experiments in human the HEK293 cell line originally derived from human embryonic kidney cells grown in tissue culture (ATCC Catalogue CRL-1573).

[2] = system: NFkB recognition sequence chimeric promoter in HEK293 cells; assay: Transient transfection of HEK293 cells, luciferase genes under NFkB responsive chimeric promoter, treated with TNF (FIG. 3B); format: cell-based, human; conditions: compared with native Metridia longa luciferase gene; for luminescence / luciferase activity, relative light units (RLU): 100 ng/ml TNF for 6 hours at 37° C.
Protocol: FIG. 3B illustrates the response of HEK293 cells following transient transfection of cells with the novel Svar vector encoding either the wild type Metridia longa luciferase gene, or the Svar luciferase 1 or the Svar luciferase 2 genes each under the control of a chimeric promoter consisting of a SV40 minimal promoter and a 6-fold tandem repeat of the canonical NFkB recognition sequence and treated with 100 ng/ml of TNF[…] for 6 hours at 37° C. prior to quantification of the luciferase signal using a commercially available coelenterazine based “glo” substrate (QuantiLuc Gold, Invivogen).

HEK293 cells [3] = assay: Rate of loss of luciferase activity in supernatant of transiently transfected HEK293 cells (FIG. 6); format: cell-based, human; conditions: CMV promoter, room temperature, QuantiLuc Gold, compared with wild type Metridia longa luciferase
Excerpt: FIG. 6A illustrates the rate of loss of luciferase activity in the supernatant of HEK293 cells following transient transfection of cells with the luciferases genes indicated, each under the control of a constitutive CMV promoter, and quantification of luciferase activity at increasing times at room temperature using a commercially available coelenterazine based “glo” substrate (QuantiLuc, Gold Invivogen).

[4] = system: NFkB recognition sequence chimeric promoter in HEK293 cells; assay: Clonal HEK293 cell line stably transfected with NFkB responsive reporter gene, increasing TNF (FIG. 7); format: cell-based, human; conditions: stable HEK293 clone, increasing TNF for 6 hours at 37° C., QuantiLuc Gold
Excerpt: FIG. 7 illustrates the response of a clonal cell line of HEK293 cells stably transfected with a reporter gene comprising the sequence set forth in SEQ ID NO: 1 under the control of a chimeric promoter consisting of a SV40 minimal promoter and a 6-fold tandem repeat of the canonical NFkB recognition sequence treated with increasing concentrations of TNF[…].
HEK293 cells were transfected with the Svar luciferase Luc-1 gene under the control of a chimeric promoter consisting a SV40 minimal promoter and a 6-fold tandem repeat of the canonical NFkB recognition sequence and stable clones were isolated and characterized.

[5] = system: NFkB recognition sequence chimeric promoter in K562 cells; assay: K562 clonal cell lines stably transfected with NFkB responsive reporter gene, increasing TNF (FIG. 8); format: cell-based, human; conditions: stable K562 clones, increasing TNF for 6 hours at 37° C., compared with firefly luciferase under same promoter
Excerpt: FIG. 8 illustrates a comparison of the response of K562 cells stably transfected with either the luciferase gene comprising the sequence set forth in SEQ ID NO: 1 under the control of a chimeric promoter consisting of a SV40 minimal promoter and a 6-fold tandem repeat of the canonical NFkB recognition sequence and K562 cells stably transfected with the firefly luciferase gene comprising the open reading frame encoding the firefly luciferase protein under the control of the same NFkB responsive promoter and treatment of cells with increasing concentrations of TNF[…] for 6 hours at 37° C.
K562 cells originally derived from a chronic myelogenous leukemia (ATCC, catalogue number CCL-243) were transfected with either the Svar luciferase Luc-1 gene or firefly luciferase gene each under the control of a chimeric promoter consisting a SV40 minimal promoter and a 6-fold tandem repeat of the canonical NFkB recognition sequence. Stable clones were isolated and characterized. The clonal cell lines were treated with increasing concentrations of TNF[…] for 6 hours at 37° C. (FIG. 8).

[6] = system: transfected mammalian cells; assay: Comparison of luciferase properties with other luciferases (Table 2); format: cell-based; conditions: relative to other native or engineered luciferases reported in the literature
Excerpt: FIG. 12 illustrates Table 2 showing a comparison of the properties of the luciferase encoded by the sequence set forth in SEQ ID NO: 1 and SEQ ID NO:2 and comprising the amino acid sequence encoded by the sequence set forth in AA1 and AA2 relative to those of other native or engineered luciferases reported in the literature.

| Molecule | luciferase activity / light output (brightness), relative light units (RLU) (HEK293 cells [1]) | luminescence / luciferase activity, relative light units (RLU) [2] | luminescence / luciferase activity, relative light units (RLU) ([2]; listed as Svar luciferase 1) | dynamic range relative to control samples in the absence of the pharmacology active substance [2] | signal stability and/or signal duration (HEK293 cells [3]) | relative light units (RLU) and fold induction relative to control not treated with TNF [4] | relative light units (RLU) values [5] | toxicity for transfected mammalian cells [6] | luciferase activity / light output (brightness), relative light units (RLU) (HEK293 cells [1]; listed as Svar luciferase 2) | luminescence / luciferase activity, relative light units (RLU) ([2]; listed as Svar luciferase 2) |
| --- | --- | --- | --- | --- | --- | --- | --- | --- | --- | --- |
| B1 | increased light output (brightness) | increased luminescence including increased light output (brightness) | enhanced luciferase activity relative to the wild type gene | higher dynamic range | increased signal stability and/or signal duration | high levels of both relative light units (RLU) and fold induction | markedly higher relative light units (RLU) values | absence of toxicity | – | – |
| B2 | improved activity relative to the native Metridia longa luciferase; also recorded: equivalent or slightly reduced activity relative to SVAR Luc-1 luciferase | increased luminescence including increased light output (brightness) | – | higher dynamic range | increased signal stability and/or signal duration | – | – | – | increased light output (brightness) | enhanced luciferase activity relative to the wild type gene |

— patent US20250270518A1, “NOVEL LUCIFERASES WITH IMPROVED PROPERTIES” (SVAR Life Science AB, priority 2021, published 2025)
